Test results as given in US20120237528A1 (Janssen / Centocor, published 2012).
Residue numbers refer to the chain shown, from its start.

T1: Cynomolgous monkey (cyno) TF-ECD with His Tag (cynomolgus monkey, UniProt P13726 33-251 (human entry))
T1 construct: also called cyno antigen
T1 chain: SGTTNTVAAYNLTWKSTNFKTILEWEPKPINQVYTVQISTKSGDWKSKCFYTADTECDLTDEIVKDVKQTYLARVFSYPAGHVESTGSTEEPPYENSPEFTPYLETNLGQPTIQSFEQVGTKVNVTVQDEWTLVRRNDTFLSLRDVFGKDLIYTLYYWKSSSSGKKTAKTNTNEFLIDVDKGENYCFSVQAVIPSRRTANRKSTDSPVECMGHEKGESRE

B1: M11 (antibody, V domains shown)
VH: EVQLVQSGAEVKKPGESLRISCKGSGYTFITYWIEWVRQMPGKGLEWMGDILPGSGSTNYNENFKGHVTISADKSISTAYLQWSSLKASDTAMYYCARSGYYGNSGFAYWGQGTLVTVSS
VL: DIVMTQSPLSLPVTPGEPASISCKSSQSLLSSGNQKNYLTWYLQKPGQSPQLLIYWASTRESGVPDRFSGSGSGTDFTLKISRVEAEDVGVYYCQNDYTYPLTFGQGTKLEIK
notes: complete MAb; FR4 is its own entry; also called H15/L4
B2: M60 (antibody, V domains shown)
VH: B1 VH with N61S, E62P, N63S, K65Q
VL: B1 VL
notes: complete MAb; FR4 is its own entry; also called H22/L4
B3: M12 (antibody, V domains shown)
VH: B1 VH
VL: B1 VL with S7T, P12S, E17Q, S49P
notes: complete MAb; FR4 is its own entry; also called H15/L5
B4: M10 (antibody, V domains shown)
VH: B1 VH
VL: B1 VL with S7T
notes: complete MAb; FR4 is its own entry; also called H15/L3
B5: M52 (antibody, V domains shown)
VH: EVQLVQSGAEVKKPGATVKISCKVSGYTFITYWIEWVQQAPGKGLEWMGDILPGSGSTNYNENFKGRVTITADTSTDTAYMELSSLRSEDTAVYYCATSGYYGNSGFAYWGQGTLVTVSS
VL: B1 VL with S7T
notes: complete MAb; FR4 is its own entry; also called H21/L3
B6: M51 (antibody, V domains shown)
VH: B5 VH
VL: DIVMTQSPDSLAVSLGERATINCKSSQSLLSSGNQKNYLTWYQQKPGQPPKLLIYWASTRESGVPDRFSGSGSGTDFTLTISSLQAEDVAVYYCQNDYTYPLTFGQGTKLEIK
notes: complete MAb; FR4 is its own entry; also called H21/L2
B7: M31 (antibody, V domains shown)
VH: EVQLVESGGGLVQPGGSLRLSCAASGYTFITYWIEWVRQAPGKGLVWVSDILPGSGSTNYNENFKGRFTISRDNAKNTLYLQMNSLRAEDTAVYYCARSGYYGNSGFAYWGQGTLVTVSS
VL: B1 VL with S7T
notes: complete MAb; FR4 is its own entry; also called H18/L3
B8: M54 (antibody, V domains shown)
VH: B5 VH
VL: B1 VL with S7T, P12S, E17Q, S49P
notes: complete MAb; FR4 is its own entry; also called H21/L5
B9: M35 (antibody, V domains shown)
VH: B7 VH
VL: B1 VL with S7T, L11S, P15L, E17Q, Y42L, L43Q, K45R, S49P, Q51R, S73A
notes: complete MAb; FR4 is its own entry; also called H18/L7
B10: M33 (antibody, V domains shown)
VH: B7 VH
VL: B1 VL with S7T, P12S, E17Q, S49P
notes: complete MAb; FR4 is its own entry; also called H18/L5
B11: M56 (antibody, V domains shown)
VH: B5 VH
VL: B1 VL with S7T, L11S, P15L, E17Q, Y42L, L43Q, K45R, S49P, Q51R, S73A
notes: complete MAb; FR4 is its own entry; also called H21/L7
B12: M32 (antibody, V domains shown)
VH: B7 VH
VL: B1 VL
notes: complete MAb; FR4 is its own entry; also called H18/L4
B13: M30 (antibody, V domains shown)
VH: B7 VH
VL: B6 VL
notes: complete MAb; FR4 is its own entry; also called H18/L2
B14: M53 (antibody, V domains shown)
VH: B5 VH
VL: B1 VL
notes: complete MAb; FR4 is its own entry; also called H21/L4

molecular target: T2, recombinant extracellular domain (ECD) of human TF, amino acid 1-219 of the mature chain, C-terminal His6-tag (human, UniProt P13726 33-251); assay: Biacore
T2 construct: expressed in a mammalian system; used for ELISA and Biacore; biotinylated by NHS-ester for the Fab ELISA; also called His6-TF-ECD1-219; HumanTF1-219

| Kd | Binder |
| --- | --- |
| 0.37 nM | B1 |
| 0.47 nM | B2 |
| 0.55 nM | B3 |

Molecular target: T1, Cynomolgous monkey (cyno) TF-ECD with …
Assay: Biacore

| Kd | Binder |
| --- | --- |
| 1.52 nM | B1 |
| 1.57 nM | B4 |
| 1.31 nM | B2 |
| 2.24 nM | B3 |

molecular target: T2, recombinant extracellular domain (ECD) …; assay: Biacore; remark: another data set of the same source

| Kd | koff | kon | Binder |
| --- | --- | --- | --- |
| 0.36 nM |  |  | B1 |
| 0.47 nM |  |  | B2 |
| 0.55 nM | 5.1e-05 s⁻¹ | 92200 M⁻¹ s⁻¹ | B3 |
| 3.57 nM | 0.000264 s⁻¹ | 74000 M⁻¹ s⁻¹ | B5 |
| 2.9 nM | 0.000235 s⁻¹ | 81100 M⁻¹ s⁻¹ | B6 |

molecular target: T2, recombinant extracellular domain (ECD) …; assay: direct ELISA, 50 ng/ml

| binding result | Binder |
| --- | --- |
| binds | B7 |
| binds | B8 |
| binds | B9 |
| binds | B10 |
| binds | B11 |
| binds | B12 |
| binds | B13 |

molecular target: T3, endogenous human tissue factor on MDA-MB-231 breast cancer cells (human, UniProt P13726 33-295); assay: cell-based or functional assay

| IL-8 Induction, Ave % inhibition | Binder |
| --- | --- |
| 93% | B1 |
| 106% | B2 |
| 102% | B3 |

molecular target: Innovin, lyophilized recombinant human tissue factor combined with phospholipids (human, UniProt P13726 33-295, limits assumed); assay: cell-based or functional assay

| T½ Max (seconds), coagulation of human plasma | Binder |
| --- | --- |
| 195 s | B1 |
| 196 s | B4 |
| 180 s | B2 |
| 197 s | B3 |
| 201 s | B5 |
| 207 s | B6 |

molecular target: T3, endogenous human tissue factor on …; assay: cell-based or functional assay; remark: another data set of the same source

| % IL-8 Inhibition | Binder |
| --- | --- |
| 87.9% | B1 |
| 90.7% | B4 |
| 99.6% | B2 |
| 98.6% | B3 |
| 67.7% | B5 |
| 71.5% | B6 |

molecular target: T3, endogenous human tissue factor on …; assay: FACS on MDA-MB-231 cells
Description: This assay is used to detect the direct binding of antibody to endogenouse human TF expressed in breast cancer cells. Prepare four point titrations of the test mAbs in FACS buffer (1% FBS in PBS) in duplicate. Start a titration at 1,000 ng/ml with 1:4 dilutions. […] Unstained cells and secondary antibody, Cy-5 conjugated Goat anti-Human IgG Fc antibody in FACS buffer 1:200, is used as controls and prepared immediately before use.
Using standard tissue culture technique, rinse adherent MDA-MB-231 cells in culture flask with once with PBS (w/o Ca+2/Mg+2). Lift cells with Versene and count the cells and seed 200,000 cells per well in a polystyrene V-bottom plate. FACS Analysis Protocol: Tissue Factor Binding. Pellet the cells in a Allegra X-15R centrifuge at 450×g for 3 minutes at 4° C., resuspend in FACS Buffer (2% FBS in PBS) and plate 200,000 cells per well in 200 uL. Pellet cells at 450×g for 3 minutes at 4° C. Discard supernatants and add 100 uL/well test or control mAbs to designated wells and incubate on ice or at 4° C. for 1 hour (+/−10 minutes). Pellet cells at 450×g for 3 minutes at 4° C. Discard supernatants and wash cells once in FACS buffer. Resuspend cells in 200 uL/well FACS buffer and pellet cells at 450×g for 3 minutes at 4° C. Discard supernatants and add 100 uL/well secondary antibody to designated wells (triterate), and incubate on ice for 1 hour (+/−10 minutes). Pellet cells at 450×g for 3 minutes at 4° C. Discard supernatants and wash cells 2 times in FACS buffer before resuspending the cells in 200 uL/well FACS Buffer (triterate). Pellet cells at 450×g for 3 minutes at 4° C. Discard supernatant and resuspend cells in 100 uL/well CytoFix Buffer. Analyze reactions by flow cytometry (BD FACSArray). The FlowJo Software is used for FACS data analysis by gating the main population of cells in the unstained control well and applying the gate to the whole data set. The data is exported as a table of the geometric mean fluorescence intensity (MFI) in the red channel for the applied gate.

| Whole Cell Binding, Ave % | Binder |
| --- | --- |
| 114% | B1 |
| 124% | B3 |

molecular target: T2, recombinant extracellular domain (ECD) …; assay: TF-ECD binding ELISA, chemiluminescent

| EC50 | Binder |
| --- | --- |
| 0.00994 µg/mL | B1 |
| 0.0105 µg/mL | B4 |
| 0.00835 µg/mL | B2 |
| 0.01 µg/mL | B3 |

Molecular target: T1, Cynomolgous monkey (cyno) TF-ECD with …
Assay: TF-ECD binding ELISA, chemiluminescent

| EC50 | Binder |
| --- | --- |
| 0.0187 µg/mL | B1 |
| 0.0196 µg/mL | B4 |
| 0.0178 µg/mL | B2 |
| 0.0228 µg/mL | B3 |

Molecular target: T1, Cynomolgous monkey (cyno) TF-ECD with …
Assay: direct ELISA of supernatants, chemiluminescent
Description: A solution Phase direct TF binding ELISA using chemiluminescent detection was used to rank the top binders from human framework adaptation library. The 96 well black maxisorp plates were coated with 100 uL of 4 ug/ml Goat anti human IgG FC diluted in carbonate-bicarbonate buffer, pH 9.4 at 4° C. overnight and then washed thrice with wash buffer (PBS with 0.05% Tween-20 solution) and blocked with […] 1% BSA/10 mM PBS solution for 1 hour followed by a washing as before. Samples or standards were diluted to 50 ng/ml in Assay Buffer (1% BSA in PBS+05% Tween) and 100 ul was added to the assay plate at room temperature for 1 hour with shaking. The plates were washed thrice and 100 ul per well of human or cynomologus TF-ECD with His Tag was added at 100 ng/ml diluted in Assay Buffer and incubate for 2 hours at room temperature. After washing, 100 ul per well of Qiagen peroxidase conjugated penta-his at 1:2000 dilution in assay buffer was added and incubated 1 hour at room temperature with shaking. The BM ChemiLum Substrate (BM Chemilum, POD, Roche) was made freshly at 1:100 dilution into Buffer and 100 ul added to the plates after a final wash. After 10 minutes the plates are read on Perkin Elmer Envision Reader, BM ChemiLum program.
For primary screening of library variants in crude supernatants, samples or controls were normalized to 50 ng/ml in spent FreeStyle 293 HEK media (Gibco) and assayed at single concentration determinations. In the present assay, the concentration of antibody was 5 ng (0.1 ml used) and the TF ECD and the antigen was His6-TF-ECD₁₋₂₁₉ used at a final concentration of 10 ng/well.

| binding result | Binder |
| --- | --- |
| no binding (tested: 50 ng/ml) | B7 |
| no binding (tested: 50 ng/ml) | B8 |
| no binding (tested: 50 ng/ml) | B9 |
| no binding (tested: 50 ng/ml) | B10 |
| no binding (tested: 50 ng/ml) | B11 |
| no binding (tested: 50 ng/ml) | B12 |
| no binding (tested: 50 ng/ml) | B5 |
| no binding (tested: 50 ng/ml) | B14 |
| no binding (tested: 50 ng/ml) | B6 |
| no binding (tested: 50 ng/ml) | B13 |
